Data from IntAct's records for PubMed 29611543.

Molecular target: T1, trem2_human TREM2 (UniProt Q9NZC2)
T1 sequence: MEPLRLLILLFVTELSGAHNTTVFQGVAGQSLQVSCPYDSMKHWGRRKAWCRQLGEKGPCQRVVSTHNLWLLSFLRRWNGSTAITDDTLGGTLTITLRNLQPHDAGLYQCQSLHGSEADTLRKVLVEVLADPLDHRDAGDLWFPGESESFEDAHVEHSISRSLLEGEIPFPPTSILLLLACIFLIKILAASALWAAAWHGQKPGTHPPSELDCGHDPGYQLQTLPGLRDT

Presenilin-1 (Homo sapiens) (from UniProt P49768) D385A
effect of a mutation on the interaction: with no effect
